Source: article PMC6923396

Experiments:
[1] = target: p62-UBA K420Q (for NMR) (mouse) (UniProt Q64337); assay: NMR dilution series (1H-15N HSQC peak volumes of monomer and dimer); 15N-labeled p62-UBA diluted from 500 to 20 µM; 298 K, pH 6.0, 20 mM sodium acetate, 100 mM NaCl; dimer to monomers
[2] = target: p62-UBA K435Q (for NMR) (mouse) (UniProt Q64337); assay: as above

Row | Kd [1] [µM] | Kd [2] [µM] | Substance
1 | 41.2 | – | p62-UBA K420Q (for NMR) (from UniProt Q64337-1 391-436) (domain or fragment)
2 | – | 15.5 | p62-UBA K435Q (for NMR) (from UniProt Q64337-1 391-437) (domain or fragment)
